Like-named read-outs stand apart in the source and are kept apart here.
Experiments:
HeLa cells [1] = type: cell-based; settings: 500 μM heparin from intestinal mucosa
HeLa cells [2] = assay: Fluorescence attachment assay: saturation binding of labeled MBP-MAM proteins to HeLa cells
[3] = Liposome association assay; type: binding; settings: MBP-MAM proteins, PC/PA liposomes
Experimental: PBS-buffered liposomes were prepared from 1,2-Dioleoyl-sn-glycero-3-phosphocholine (PC) or mixtures of PC and 1,2-dioleoyl-sn-glycero-3-phosphate (PA) (both Avanti Polar Lipids Inc.) as described previously (Selyunin et al., 2011), but using PBS as buffer. 300 μg liposomes were incubated with 100 μg MBP-MAM protein in PBS for one hour at 22° C. Mixtures were centrifuged at 100 000×g, 4° C. for one hour and both pellet and supernatant fractions were separated by SDS-PAGE and proteins were detected by Coomassie staining.
Binding of GST and GST-mce constructs to liposomes were carried out as described in the literature (Krachler et al., 2011). 300 μg liposomes containing PC alone or 1-80 mol % PA were incubated with 100 μg GST and GST-mce proteins in PBS for one hour at 22° C. Mixtures were centrifuged at 100,000×g, 4° C. for one hour and both pellet and supernatant fractions were separated by SDS-PAGE and proteins detected by Coomassie staining Band intensities were determined using the gel analysis software UN-SCAN-IT (Silk Scientific Inc.) and intensities of pellet samples (% bound) were expressed as fraction of total intensities (supernatant and pellet samples combined).

Lipid overlay assay = type: binding; settings: MBP-MAM proteins
Experimental: Pre-spotted PIPstrips™ (Echelon Biosciences Inc.) were incubated in T-TBS containing 5% dry milk powder for one hour at 22° C. MBP-MAM proteins were diluted into blocking buffer to give a final concentration of 10 μM and incubated with the PIP strip for one hour at 22° C. Strips were washed with T-TBS three times for 10 minutes each and incubated with His antibody (QIAGEN) diluted 1:1000 into blocking buffer at 22° C. for one hour. Strips were washed three times with T-TBS and incubated with anti-mouse HRP-conjugated secondary antibody (GE Healthcare) diluted 1:5000 into blocking buffer for 1 hour at 22° C. After three more washes, bound proteins were detected using the ECL plus detection system (GE Healthcare).

V. parahaemolyticus POR1 = assay: BL21 expressing MAM constructs blocking POR1 attachment and POR1-mediated cytotoxicity; settings: construct expressed on E. coli BL21, identical multiplicity of infection
trypsinized cells = assay: Fluorescence attachment assay of labeled MAM7 on trypsinized cells; type: binding; settings: cells treated with trypsin
Experimental: HeLa cells were cultured in sterilized Corning costar 96 well plates (15 000 cells/well) for 16 hours prior to experiments. ALEXAFLUOR®-labeled (fluorescent dye) proteins were diluted into PBS to give final concentrations of 0.1-100 μM and incubated with cells washed with PBS for 1 hour at 37° C. Initial fluorescence and fluorescence output were measured on a plate reader (λexcitation 485 nm, λemission 520 nm) prior to and following three washes with PBS, respectively. Data was expressed as % bound fluorescence and corrected for values determined for MBP alone. Levels of bound protein were blotted as a function of protein concentration and data were fit to a single-site binding model using Sigma Plot. For fluorescence attachment assays on trypsinized cells, cells were detached from the culture dish by trypsinization, which was stopped by adding DMEM after 5 minutes. Cells were adjusted to 600,000/ml in PBS and incubated with 100 μM labeled MBP-MAM7 or MBP in PBS for 30 minutes at 37° C. Fluorescence of the cell suspension was measured before and after extensive washing with PBS as described above.
Attachment assays with live bacteria or purified labeled protein were carried out as described (Krachler et al., 2011). […]

Which BL21-MAM7 remaining attached (HeLa cells [1]) does the source give for heparin here?
The BL21-MAM7 remaining attached was about 40%.

B1: MAM7: recombinant MBP-tagged V. parahaemolyticus multivalent adhesion molecule with seven mce domains in tandem (SEQ ID NO:1) (protein, listed as Vibrio parahaemolyticus)
chain: MSDQNNSQTSYVPDVKRSKGISPLWLLPILTMVLAGWLVVKSIHDAGQRVQIYFSDAAGLVAGRTTIRYQGLEVGMVRDINLSEDLGSIYVDADIYPEATKLLNDKTRFWLVKPTASLTGVSGLDALVSGNYISIQPGDGQEFETTFHALDSAPTDLRVSQGLNIKLKSRDLGGVSIGSQIVYKKIPIGAVYSYQLDEDAKSITIQANIQEQYRHIINDRSRFWNVSGIGASIGFEGVDVRLESMSALLGGAIAVDSPDDGEPVEENTEFRLYKDLKTAGRGIAIKIALPDDNKVSSEGAPIMYRGIEIGQVTDLSLSEGREVILASAAIQPAFSDMLTTGTRFVLEEAKVSLSGVENIANLVRGNFLTIVPGDGERSRRFTAIRKNVFNQQQEKSIAIRLISDNSFGLDSGANVLYKGIVVGSIINVGLVDEKKQTKHEVFMDVLIDHEYKHLIKSNNRFYVTGSASAELTESGLSVTVPPAKQLLTGSISFVSEGSESIQKEYQLFQNESLAELAQYNKTGSKTLMLFASELPPISKGSPLLYRNLPVGNVSDFHLVDGGVLIKATIENRFAYLVTPQTVFWNRSGIEIDASLSGVSVKAHPLKSLIEGGIAFDSVPGVENKVGERWKLYADQQKARKFGRVISLETDGTQEVLKGMPIEYQGVKVGEVTLVVPNFRRNLVEVTARILPEYVENIAVEGTHFWLTEPEIGLGGVKNLGALVSKSISVEPGNGKAKFDFQLEKGFDRVEGVMFTLQSEQRGSVQVGTPVLYRQMEVGQVTDVRLGEFADRVVSTIKIKPEYAYLVRQNSVFWNVSGVDVSIGITGANIKAGTIDSLVRGGIAFSTPEQSQIPPAAKRGHSFYLYPRADESWVQWRTPIPKP
modifications: MBP tag
Which results are given for B1?
Kd (HeLa cells [2]; intact host cells, read-out: apparent KD for intact cells): 200 nM; Kd (HeLa cells [2]; saturation binding, ALEXAFLUOR-labeled MBP-MAM proteins, cultivated HeLa cells, read-out: Equilibrium dissociation constants (KD values)): 200 ± 100 nM; PA content of liposomes at which binding was seen [3]: 1 mol %; binding to PA in lipid overlay assay (Lipid overlay assay): bound to PA; effect on attachment of POR1 and pathogen-mediated cytotoxicity (V. parahaemolyticus POR1): significantly decreased; reduction of the number of MAM7 molecules on cells (trypsinized cells): over 100 fold
